Results as given in patent publication US20240343803A1 (SHANDONG SIMCERE BIOPHARMACEUTICAL, published 2024).

T1: human TIGIT ECD-mFc (human)
T1 construct: also called human TIGIT protein; fusion protein of extracellular domain of human TIGIT and mouse IgG2a Fc fragment
T1 chain: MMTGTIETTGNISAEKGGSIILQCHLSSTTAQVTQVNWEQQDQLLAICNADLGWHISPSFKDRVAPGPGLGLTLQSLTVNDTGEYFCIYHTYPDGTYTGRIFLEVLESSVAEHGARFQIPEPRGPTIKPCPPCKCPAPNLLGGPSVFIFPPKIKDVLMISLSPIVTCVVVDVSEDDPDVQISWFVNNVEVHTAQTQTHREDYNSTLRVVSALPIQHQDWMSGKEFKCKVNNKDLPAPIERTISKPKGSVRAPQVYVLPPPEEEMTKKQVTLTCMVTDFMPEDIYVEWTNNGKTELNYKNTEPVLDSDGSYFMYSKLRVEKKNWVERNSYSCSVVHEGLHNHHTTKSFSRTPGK

T2: Fusion protein of extracellular domain of human TIGIT and His-tag (human TIGIT ECD-his) (human)
T2 chain: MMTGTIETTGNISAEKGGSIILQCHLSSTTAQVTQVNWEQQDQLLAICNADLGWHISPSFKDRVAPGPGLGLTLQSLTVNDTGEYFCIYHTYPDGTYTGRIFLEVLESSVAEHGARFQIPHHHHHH

T3: Fusion protein of extracellular domain of human TIGIT and mouse IgG2a Fc fragment (human TIGIT ECD-mFc) (human)
T3 construct: The entry includes the signal peptide (limits not recoverable) and the mouse IgG2a Fc
T3 chain: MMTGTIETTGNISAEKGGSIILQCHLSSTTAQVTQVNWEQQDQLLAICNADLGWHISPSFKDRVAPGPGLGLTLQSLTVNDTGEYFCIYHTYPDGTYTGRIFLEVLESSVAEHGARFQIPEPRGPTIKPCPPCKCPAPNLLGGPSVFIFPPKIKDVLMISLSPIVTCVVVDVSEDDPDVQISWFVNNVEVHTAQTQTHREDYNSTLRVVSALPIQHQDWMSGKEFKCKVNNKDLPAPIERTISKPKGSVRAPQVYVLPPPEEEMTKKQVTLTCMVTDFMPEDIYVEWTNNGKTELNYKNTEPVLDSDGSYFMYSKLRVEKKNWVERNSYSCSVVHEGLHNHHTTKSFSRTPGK

T4: Full-length human TIGIT on CHO-K1 cells (CHO-K1 human TIGIT) (human, UniProt Q495A1 22-244)
T4 construct: NCBI XP_024309156.1; the entry includes the signal peptide (limits not recoverable); The strain (high, medium, low) is named under assay; also called high expression strain 1D2; medium expression strain 2D10
T4 sequence: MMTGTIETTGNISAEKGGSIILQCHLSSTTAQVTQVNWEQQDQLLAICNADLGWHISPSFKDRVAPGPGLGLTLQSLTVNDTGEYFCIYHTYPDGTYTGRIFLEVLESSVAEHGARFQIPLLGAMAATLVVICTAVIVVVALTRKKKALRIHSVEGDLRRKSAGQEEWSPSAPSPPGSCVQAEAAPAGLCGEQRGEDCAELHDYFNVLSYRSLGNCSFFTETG


How the values were obtained:
[1] = target: T1, human TIGIT ECD-mFc; assay: ELISA, human TIGIT ECD-mFc captured by anti-mouse IgG
Protocol: (§1) After washing with blocking buffer, the plate was added with 50 μL/well of 30 ng/ml human TIGIT ECD-mFc (in house) or cynomolgus monkey TIGIT ECD-mFc (in house) and incubated at 37° C. for 2.0 hours. After washing the plate, the serial diluted antibodies (initial concentration 13 nM, 3-fold serial dilution, 12 concentration points) were added into the plate (50 μL/well) and incubated at 37° C. for 2.0 hours. After washing the plate, the goat anti-human IgG Fc-HRP (Merck, Cat NO. AP113P)) working solution (dilution ratio 1:5000, 50 μL/well) were added into wells and incubated at 37° C. for 1.0 hour. A HRP substrate, TMB (KPL, Cat NO. 5120-0077) was added into wells after washing the plate again for color development. After adding a termination solution to terminate the reaction, the absorbance value was read by a microplate reader (PE, Ensight-HH3400). An antibody binding curve was drawn with molar concentration of antibodies as the abscissa and the corresponding OD value as the ordinate. The EC50 value was calculated by using a Four Parameter Logistic Fit (GraphPad Prism9). […] The positive control antibodies are RG6058-hIgG1, TIGIT-002-H4L3 and TIGIT-005-H2Lld; and the negative control antibodies are anti-Fluorescein-hIgG1 (in house). The binding results of the 4 humanized bispecific antibodies to human TIGIT protein are shown in FIG. 43 and Tables 42 and 43, and the binding results to cynomolgus monkey TIGIT are shown in FIG. 44 and Tables 42 and 43.

[2] = target: T5, cynomolgus monkey TIGIT ECD-mFc (cynomolgus monkey); assay: ELISA, cynomolgus TIGIT ECD-mFc captured by anti-mouse IgG
T5 construct: also called cynomolgus monkey TIGIT protein
Protocol: as §1

[3] = target: T2, Fusion protein of extracellular domain …; assay: BIAcore
[4] = target: T3, Fusion protein of extracellular domain …; assay: ELISA, human TIGIT ECD-mFc
In short: (§2)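 Antibodies diluted to 13 nM in 1% BSA, then 3-fold serial dilution for 12 concentrations, incubated with milk-blocked plates at 37° C for 1.5-2 h. Bound antibody detected with HRP-labelled secondary antibody (1:5000, 37° C, 1 h) and TMB, stopped with 1M HCl; OD450 nm read.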

[5] = target: T2, Fusion protein of extracellular domain …; assay: BIAcore; KD ratio to TIGIT-CHI-070
[6] = target: T6, Fusion protein of extracellular domain of cynomolgus monkey TIGIT and mouse IgG2a Fc fragment (cynomolgus … (cynomolgus monkey)); assay: ELISA, cynomolgus monkey TIGIT ECD-mFc
T6 construct: The entry includes the signal peptide (limits not recoverable) and the mouse IgG2a Fc
T6 sequence (chain, as listed by the source limits assumed): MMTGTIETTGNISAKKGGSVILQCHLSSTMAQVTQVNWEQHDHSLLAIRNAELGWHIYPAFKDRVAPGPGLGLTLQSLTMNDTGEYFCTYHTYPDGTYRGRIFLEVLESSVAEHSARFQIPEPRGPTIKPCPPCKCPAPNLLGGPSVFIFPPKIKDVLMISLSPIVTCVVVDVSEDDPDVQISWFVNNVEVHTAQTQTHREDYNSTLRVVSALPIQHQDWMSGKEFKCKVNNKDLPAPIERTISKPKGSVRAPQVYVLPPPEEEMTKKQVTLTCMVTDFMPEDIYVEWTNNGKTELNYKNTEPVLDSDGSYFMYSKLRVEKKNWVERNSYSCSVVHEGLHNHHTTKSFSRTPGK
In short: as §2

[7] = target: T7, Full-length cynomolgus monkey TIGIT on CHO-K1 cells (CHO-K1 cynomolgus monkey TIGIT) (cynomolgus monkey); assay: cell binding, CHO-K1 cynomolgus monkey TIGIT
T7 construct: NCBI XP_015300911.1
T7 sequence (chain, as listed by the source limits assumed): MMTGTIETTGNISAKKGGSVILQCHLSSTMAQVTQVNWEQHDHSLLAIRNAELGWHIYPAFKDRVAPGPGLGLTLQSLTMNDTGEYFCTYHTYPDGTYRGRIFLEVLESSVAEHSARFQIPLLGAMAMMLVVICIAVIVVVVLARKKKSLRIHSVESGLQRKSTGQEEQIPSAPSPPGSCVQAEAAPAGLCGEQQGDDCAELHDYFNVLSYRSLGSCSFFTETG
In short: (§3)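 Binding was measured by flow cytometry after a 60-minute, 4° C incubation of the antibodies with 2×10⁵ CHO-K1 cells displaying full-length human or cynomolgus monkey TIGIT. Antibody titration: 12 points, threefold serial dilution from 80 nM, in 1% BSA-PBS.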

[8] = target: T8, Fusion protein of extracellular domain of human TIGIT and human IgG1 Fc fragment (human TIGIT ECD-hFc) (human); assay: blocking of TIGIT ECD-hFc binding to CHO-K1 CD155 cells
T8 construct: The entry includes the signal peptide (limits not recoverable) and the human IgG1 Fc
T8 sequence (chain, as listed by the source limits assumed): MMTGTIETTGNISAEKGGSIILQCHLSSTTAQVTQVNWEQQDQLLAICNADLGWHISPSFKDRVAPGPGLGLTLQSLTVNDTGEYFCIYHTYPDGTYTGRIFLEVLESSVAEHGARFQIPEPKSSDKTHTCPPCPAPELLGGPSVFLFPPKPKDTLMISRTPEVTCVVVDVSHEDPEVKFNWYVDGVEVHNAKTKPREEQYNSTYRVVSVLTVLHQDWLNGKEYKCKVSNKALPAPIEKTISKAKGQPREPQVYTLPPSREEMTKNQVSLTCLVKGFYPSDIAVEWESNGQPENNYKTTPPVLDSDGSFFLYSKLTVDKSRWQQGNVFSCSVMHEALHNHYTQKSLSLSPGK
In short: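 Cell-based ELISA on CHO-K1 CD155 cells, cultured overnight, fixed and blocked with 5% skim milk-PBS. Antibodies were premixed for 0.5 h with human TIGIT ECD-hFc (working concentration 30 ng/mL), then added and held at 37° C for 1.5-2 h. Bound TIGIT was detected with HRP secondary antibody (1:5000, 37° C, 1 h) and TMB, read as OD450 nm. IC50 came from the inhibition curves.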

[9] = target: T4, Full-length human TIGIT on CHO-K1 cells …; assay: cell binding, CHO-K1 human TIGIT high expression strain
In short: as §3

Binder | % relative activity RG6058-hIgG1/tested antibody [1] | % relative activity TIGIT-002-H4L3/tested antibody [1] | EC50 [1] | % relative activity RG6058-hIgG1/tested antibody [2] | % relative activity TIGIT-002-H4L3/tested antibody [2] | EC50 [2] | Kd [3] | koff [3] | kon [3] | EC50 [4] | Fold change vs chimeric antibodies (KD) [5] | EC50 [6] | EC50 [7] | IC50 [8] | EC50 [9]
TIGIT-002-H4L3 (antibody, V domains shown) VH: EVQLQESGPGLVKPSETLSLTCAVSGYSITSDSWNWIRQPPGKKLEYIGYISYSGNTYYNPSLKSRVTISRDTSKNQFSLKLSSVTAADTAVYYCARLDFSNYGGAVDYWGQGTTVTVSS VL: DIVMTQSPDSLAVSLGERATINCKASQNVRTAVAWYQQKPGQSPKLMIYSASYRYTGVPDRFSGSGSGTDFTLTISSLQAEDVAVYYCQQYYTTPWTFGGGTKVEIK | 135% | 100% | 0.0374 nM | 111% | 100% | 0.0415 nM | – | – | – | – | – | – | – | – | –
TIGIT-070-H2L1 (antibody, V domains shown, Humanized anti-TIGIT antibody) VH: EVQLVQSGAEVKKPGASVKVSCKASGYTFTNYYMHWVRQAPGQRLEWMGRIDPDSGGSKYNEKFKSRVTITVDKLSSTAYMELSSLRSEDTAVYYCAREGHYGFYSDYWGQGTTVTVSS VL: DIQMTQSPSSLSASVGDRVTITCRVSENIYSYLAWYQQKPGKSPKLLIYNAKTLAEGVPSRFSGSGSGTDFTLTISSLQPEDFATYYCQHHYGNPLTFGPGTKVDIK | – | – | – | – | – | – | 0.0808 nM | 0.000134 s⁻¹ | 1.66e+06 M⁻¹ s⁻¹ | 0.0129 nM | 0.82 fold | 0.0124 nM | 0.0799 nM | 0.393 nM | 0.0236 nM
TIGIT-070-H1L2 (antibody, V domains shown, Humanized anti-TIGIT antibody) VH: EVQLVQSGAEVKKPGASVKVSCKASGYTFTNYYMHWVRQAPGQRLEWMGRIDPDSGGSKYNEKFKSRVTITVDKSASTAYMELSSLRSEDTAVYYCAREGHYGFYSDYWGQGTTVTVSS VL: DIQMTQSPSSLSASVGDRVTITCRVSENIYSYLAWYQQKPGKSPKLLVYNAKTLAEGVPSRFSGSGSGTDFTLTISSLQPEDFATYYCQHHYGNPLTFGPGTKVDIK | – | – | – | – | – | – | 0.0883 nM | 0.000148 s⁻¹ | 1.67e+06 M⁻¹ s⁻¹ | 0.0118 nM | 0.9 fold | 0.0116 nM | 0.0879 nM | 0.421 nM | 0.0272 nM
TIGIT-070-H2L2 (antibody, V domains shown, Humanized anti-TIGIT antibody) VH: EVQLVQSGAEVKKPGASVKVSCKASGYTFTNYYMHWVRQAPGQRLEWMGRIDPDSGGSKYNEKFKSRVTITVDKLSSTAYMELSSLRSEDTAVYYCAREGHYGFYSDYWGQGTTVTVSS VL: DIQMTQSPSSLSASVGDRVTITCRVSENIYSYLAWYQQKPGKSPKLLVYNAKTLAEGVPSRFSGSGSGTDFTLTISSLQPEDFATYYCQHHYGNPLTFGPGTKVDIK | – | – | – | – | – | – | 0.0851 nM | 0.000142 s⁻¹ | 1.67e+06 M⁻¹ s⁻¹ | 0.0125 nM | 0.87 fold | 0.0112 nM | 0.0662 nM | 0.448 nM | 0.0312 nM
TIGIT-070-H3L1 (antibody, V domains shown, Humanized anti-TIGIT antibody) VH: EVQLVQSGAEVKKPGASVKVSCKASGYTFTNYYMHWVRQAPGQGLEWMGRIDPDSGGSKYNEKFKSRVTITVDKLSSTAYMELSSLRSEDTAVYYCAREGHYGFYSDYWGQGTTVTVSS VL: DIQMTQSPSSLSASVGDRVTITCRVSENIYSYLAWYQQKPGKSPKLLIYNAKTLAEGVPSRFSGSGSGTDFTLTISSLQPEDFATYYCQHHYGNPLTFGPGTKVDIK | – | – | – | – | – | – | 0.121 nM | 0.000152 s⁻¹ | 1.26e+06 M⁻¹ s⁻¹ | 0.0131 nM | 1.23 fold | 0.0139 nM | 0.0741 nM | 0.463 nM | 0.0132 nM
TIGIT-070-H3L2 (antibody, V domains shown, Humanized anti-TIGIT antibody) VH: EVQLVQSGAEVKKPGASVKVSCKASGYTFTNYYMHWVRQAPGQGLEWMGRIDPDSGGSKYNEKFKSRVTITVDKLSSTAYMELSSLRSEDTAVYYCAREGHYGFYSDYWGQGTTVTVSS VL: DIQMTQSPSSLSASVGDRVTITCRVSENIYSYLAWYQQKPGKSPKLLVYNAKTLAEGVPSRFSGSGSGTDFTLTISSLQPEDFATYYCQHHYGNPLTFGPGTKVDIK | – | – | – | – | – | – | 0.129 nM | 0.000168 s⁻¹ | 1.3e+06 M⁻¹ s⁻¹ | 0.0143 nM | 1.32 fold | 0.0157 nM | 0.0665 nM | 0.423 nM | 0.0276 nM
TIGIT-070-H2L3 (antibody, V domains shown, Humanized anti-TIGIT antibody) VH: EVQLVQSGAEVKKPGASVKVSCKASGYTFTNYYMHWVRQAPGQRLEWMGRIDPDSGGSKYNEKFKSRVTITVDKLSSTAYMELSSLRSEDTAVYYCAREGHYGFYSDYWGQGTTVTVSS VL: DIVMTQSPDSLAVSLGERATINCRVSENIYSYLAWYQQKPGQSPKLLVYNAKTLAEGVPDRFSGSGSGTDFTLTISSLQAEDVAVYYCQHHYGNPLTFGPGTKVDIK | – | – | – | – | – | – | 0.0756 nM | 0.000134 s⁻¹ | 1.77e+06 M⁻¹ s⁻¹ | 0.0119 nM | 0.77 fold | 0.0119 nM | 0.0774 nM | 0.35 nM | 0.0209 nM
TIGIT-070-H1L3 (antibody, V domains shown, Humanized anti-TIGIT antibody) VH: EVQLVQSGAEVKKPGASVKVSCKASGYTFTNYYMHWVRQAPGQRLEWMGRIDPDSGGSKYNEKFKSRVTITVDKSASTAYMELSSLRSEDTAVYYCAREGHYGFYSDYWGQGTTVTVSS VL: DIVMTQSPDSLAVSLGERATINCRVSENIYSYLAWYQQKPGQSPKLLVYNAKTLAEGVPDRFSGSGSGTDFTLTISSLQAEDVAVYYCQHHYGNPLTFGPGTKVDIK | – | – | – | – | – | – | 0.0724 nM | 0.000129 s⁻¹ | 1.78e+06 M⁻¹ s⁻¹ | 0.0148 nM | 0.74 fold | 0.0137 nM | 0.112 nM | 0.445 nM | 0.024 nM
TIGIT-070-H3L3 (antibody, V domains shown, Humanized anti-TIGIT antibody) VH: EVQLVQSGAEVKKPGASVKVSCKASGYTFTNYYMHWVRQAPGQGLEWMGRIDPDSGGSKYNEKFKSRVTITVDKLSSTAYMELSSLRSEDTAVYYCAREGHYGFYSDYWGQGTTVTVSS VL: DIVMTQSPDSLAVSLGERATINCRVSENIYSYLAWYQQKPGQSPKLLVYNAKTLAEGVPDRFSGSGSGTDFTLTISSLQAEDVAVYYCQHHYGNPLTFGPGTKVDIK | – | – | – | – | – | – | 0.115 nM | 0.000151 s⁻¹ | 1.31e+06 M⁻¹ s⁻¹ | 0.0151 nM | 1.17 fold | 0.0142 nM | 0.0556 nM | 0.417 nM | 0.03 nM
